Source: publication PMC3592575

Target: α-synuclein (α-syn) (UniProt P37840)
Experiment: self-assembly into fibrils: ThT, monomer filtration, TEM
Conditions: reference: unphosphorylated WT α-syn (semisynthetic and recombinant); sites Y125

- binding against the reference: same
Substance: α-synuclein (α-syn) (from UniProt P37840) semisynthetic pY125 α-syn
